Assay: yeast display, Sf9 membrane polyspecificity reagent, FACS + sequencing; frameworks hold sequencing errors
Procedure, shortened: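 In a synthetic yeast display library (Saccharomyces cerevisiae BJ5465), nanobody expression was induced with galactose for 36–48 hours. FACS gates were set low and high (top ~1%) using anti-HA fluorescence for expression and streptavidin fluorescence for binding of the Sf9 membrane reagent. Each polyreactivity label is drawn from the gate of origin.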

Sequence | polyreactivity (PSR sort gate)
QVQLVESGGRLVQAGGSLRLSCAASGGTLTSNPMGWYRPAPGKERELVAAINKSGGSTYYADSVKGRFTISRDNAKNTVYLQMNSLKPEDTAVYYCAARFYYWVSGGLVKYNYWGQGTQVTVSS | high polyreactivity
QVQLVESGGRLVQAGGSLRLSCAASGIIFKGYDMGWYRQEHGKVRELVAGITWIVGSTYADSVKGRFTISRDNAKNTVYLQMNSLKPEDTAVYYCNADPELTGYRFLCAEGVEYWGEGTQVTVSS | low polyreactivity
QVQLVESGGRLVQAGGSLRLSCAASGIIFTNYAMGWYRQAPGKERELVAAISSSSGTTYYADSVKGRFTISRDNAKNTVYLQMNSLKPEDTAVYYCAARPVYSTGYPRGRYGYWGQGTQVTVSS | high polyreactivity
QVQLVESGGRLVQAGGSLRLSCAASGIIFWVNAMGWYRQSTGKESELVAAISGRGGRTYYVDSVKGRFTISRDNAKNTVYLQMNSLKPEDTAVYYCNTVPYPAYLARMDYWGQGTQGTVSS | high polyreactivity
QVQLVESGGRLVQAGGSLRLSCAASGITFGVYAMGWYRQAPGKERELVAAISRRGAATYYADSVKGRFTISRDNAKNTVYLQMNSLKPEDTAVYYCAAYLARRQYDYWGQGTHVTVSS | high polyreactivity
QVQLVESGGRLVQAGGSLRLSCAASGLTFDPNDMGWYRQAPGKERELVAAISWSSGSTYYADSVKGRFTISRDNAKNTVYLQMNSLKPEDTAVYYCAAYFTLLFGTELYDYDYWGQGTQVTVSS | high polyreactivity
QVQLVESGGRLVQAGGSLRLSCAASGLTFGSYAMGWYRQAPGKESELVAGISARAGRTYYADSVKGRFTISRDNAKNTVYLQMNSLKPEDTAVYYCAARVYSRYHTKGFSNYQYDYWGQGTQVTVSS | high polyreactivity
QVQLVESGGRLVQAGGSLRLSCAASGLTITRNAMGWYRQAPGKERELVAAISWSGGSTYYADSVKGRFTISRDNAKNTVYLQMNSLKPEDTAVYDCAAEPYKQYTGYYYSGFEYWGQGTQVTVSS | high polyreactivity
QVQLVESGGRLVQAGGSLRLSCAASGLTLFRYAKGWYRTAPGKERELVAAIDYGGGTYYADSVKGRFTISRDNAKNTVYLQMNSLKPEDTAVYYCAVEPEYKYYEGDYWGQGTQVTVSS | low polyreactivity
QVQLVESGGRLVQAGGSLRLSCAASGNILRFNALGWYRQAPGKEWQLVAAISRSGGTTYFADSVKGRFTISRDTAKNTVYLQMNSLKPEDTAVYYCAARSRYGESPGYYWGQGTQVTVSS | high polyreactivity
QVQLVESGGRLVQAGGSLRLSCAASGRIFGPYVMGWYRQAPGKERELFAAISTSGTYTYYADSVNGRFTISPDNAKNTVYLQMNSLKPEDTAVYYCAKRSGARHRLMDYWGQGTQVTVSS | low polyreactivity
QVQLVESGGRLVQAGGSLRLSCAASGRIFLSYAMGWYRQAPGKERELVAAISRSGGRTYYADSVKGRFTISRDNAKNTVYLQMNSLKPEDTAVYYCNVVVYVLRHYLRYDYWGQGTQVTVSS | high polyreactivity
QVQLVESGGRLVQAGGSLRLSCAASGRIFNHYAMGWYRQAPGKERELVAAIDRSGGSTYYADSVKGRFTISRDNAKNTVYFQMNSLKPEDTAVYYCNARRIIAKYGYWGQGTQVTVSS | high polyreactivity
QVQLVESGGRLVQAGGSLRLSCAASGRIFRRYAMGWYRQAPGKERELVATINSGGTTNYADSVKGRFTISRDNAKNTVYLQMNSLKPEDTAVYYCNARSARYSGFDYWGQGTQVTVSS | high polyreactivity
QVQLVESGGRLVQAGGSLRLSCAASGRISPYAMGWYRQAPGKERELVAAISSRGGRTYYADSVKGRWTISRDNAKNTVYLEMNSQKPEDTAVYYCAVYPRSTLRTFQRDYWGQGTQVTVSS | high polyreactivity
QVQLVESGGRLVQAGGSLRLSCAASGSIFAVNTMGWYRQAPGKERELVAAISQRGSSTYYADSVKGRFTISRDNAKNTVYLQMNSLKPEDTAVYYCAKRFIYGRYNYWGQGTQVTVSS | high polyreactivity
QVQLVESGGRLVQAGGSLRLSCAASGSIFDAYAMGWYRQAPGKERELVAAITTVGSTNYADSVKGRFTISRDNAKNTVYLQMNSLKPEDTAVYYCNADCNTDIVPTPYDYWGQGTQVTVSS | low polyreactivity
QVQLVESGGRLVQAGGSLRLSCAASGSIFPGNAMGWYRQAPGKDREYVGAISWSGGSTNYADSVKGRFTISRDNAKYTVYLQMNSLKPEDTAVYYCAKRFVRLDPTTQLYGKAYEYWGQGTQVTVSS | high polyreactivity
QVQLVESGGRLVQAGGSLRLSCAASGSIFVHNAMGWYRQAPGKERDLVAANTWSGGSTYYADSVKGRFTISRDNAKNTVYLQMNSVKPEDTAVYYCAAEDVAAQWAYESPTSYWYYYWGQGTQVTVSS | low polyreactivity
QVQLVESGGRLVQAGGSLRLSCAASGSIFYTYAMGWYRQAPGKEMELVAAITYRVGSTYYADSVKGRFTISRDNAKNTVYLQMNSLKPEDTAVYYCNADKGGHVRHYDYWGQGTQVTVSS | low polyreactivity

Sequence | polyreactivity (PSR sort gate)
QVQLVESGGRLVQAGGSLRLSCAASGSILTSYPMGWNRQAPGKERELVAAISTTGGSTYYADSVKGRFTISRDNAKNTVYLQMNSLKPEDTAVYYCAKASGSGGEMDYWGQGTQVTVSS | low polyreactivity
QVQLVESGGRLVQAGGSLRLSCAASGSNSFRYAIGWDRQAPGKERELVARISSGGSTNYADSVKGRFTISRDNAKNTVYLQMNRLKPEDTAVYYCAKSFRYSVYPYSHYDYWGQGTQVTVSS | high polyreactivity
QVQLVESGGRLVQAGGSLRLSCAASGSTFSPYTMGCYRQAPGKERELVAGISKSGGRTYYADSVKGRFTISRDNAKNTVYLQMNCLKREVTAVYYCATRSTTDFYCGQGTQVTVSS | high polyreactivity
QVQLVESGGRLVQAGGSLRLSCAASGSTFWESVLGWNRQSPGKDRELVAAITTNDDSTYYADSVKGRFTISRDNAKNTVYLQMNSLKPEDTAVYYCNAVQITGQFDYWGQGTQVTVSS | low polyreactivity
QVQLVESGGRLVQAGGSLRLSCAASGYIFDWNAMGWYRQAPGKERELVAAISSGGRTNYADSVKGRFTISRDNAKITVYLQMNSLKPEDTAVYYCAAVYTDPYVEYDYWGQGTQVTVSS | low polyreactivity
QVQLVESGGRLVQAGGSLRLSCAASRRIFTFYAMGWSRPAPGKERELVAAITGRGGSTYYADSVKGRFTISRDNAKNTVYLQMNSLKPEDTAVYYCAKRTSYRSHRYYYWGQGTQVTVSS | high polyreactivity
QVQLVESGGRLVQAGGSLRLSCAASVRIFFQNAMGWSRQAPGKERELVAGISGSGGSTYYADSVKGRFTISRDNAKNTVYLQMNSLKPEDTAVYYCAARYGIISSFEYDYWGQGTQVTVSS | high polyreactivity
QVQLVESGGRLVQAGGSLRLSCASSGSTFVYYAMGWYRPAPGKERELVAVISDDGGTYYADSVKGRFTISRDNAKNTVYLQMNSLKPEDTAVYYCAIDYYGGAYYWYNDRSGDYWGQGTQVTVSS | low polyreactivity
QVQLVESGGRLVQAGGSLRLSCHASGIIFTAYAMGWYRPAPGKERELVAAITWSGGSTYYADSVKGRFTISRDNAKNTVYLQMNSLKPEDTAVYYCNGERPSFPFNYWGQGTQVTVSS | low polyreactivity
QVQLVESGGRLVQAGGSLRLSFAACGSILRDNSMGWYRQAPGKEREFVADIRGSYDSTYYADSVKGRFTISRDNAKHTVYLQMNSRKREDTAVYYCNRVDAWQDYDYWGLGTQVTVSS | low polyreactivity
QVQLVESGGRLVQAGGSLRLSWAASGITFFVNAMGWYRPAPGKERELVAVISRGDSTNYADSVKGRFTISRDNAKNTVYLLMNSLKPEDTAVYYCAADGSRAGLEGNDYWGQGTQVSVSS | low polyreactivity
QVQLVESGGRLVQAGGSLRLTCAASGSTFPKYAMGWYRQAPGKERELVASISVTTGSTYYADSVKGRFTISRDNAKNTVYLQMNSLKPVDTAVYYCAKRTYSRKFRGAYNYWGQGTQVTVSS | high polyreactivity
QVQLVESGGRLVQAGGSLRLTCAASGYTYSYYAMGWYRQAPGKERELVAAINYSGGRTYYADSVKGRFTISRDNAKNTVYLQMNSLKPEDTAVYYCAAYTRNGDYDYWGQGTQVTVSS | high polyreactivity
QVQLVESGGRLVQAGGSLRVSCAASGSTFLFYAMVWYRQAPGKERELVATISRGGSTYYADSVKGRFTISRDNAKNTVYLQMNSQIPEDTAVYYCAARATRVTIAPRYGYWGQGTQVTVSS | low polyreactivity
QVQLVESGGRLVQAGGTLRLSCAASGRIFGDYAMGWYRQAPGKERELVAVISVGGRTTYADSVKGRFTISRDNAKNTVYLQMNSLKPEDTAVYYCATRLSTRDGGYRGQGTQVTVSS | low polyreactivity
QVQLVESGGRLVQAGRSLRLSCAASGRTFGRYAMGWYRQAPGKERELVAAITRGGGSTYYADSVKGRFTISRDNAKYTVSLQMNSLKPEDTAVYYCAARNFRSPYGYDYWGQGTQVTVSS | high polyreactivity
QVQLVESGGRLVQAGVSLRLSCAAGGRTFGINAMGWYRQAPGKERELVARIRKTVGSTYYADSVKGRFTISRDNAKNTVYLQMNSLKPEDTAVYYCNADYDAYPRYIRYGYWGQGTQVTVSS | high polyreactivity
QVQLVESGGRLVQARGSLRLSCAASRSTFPFYYMGWYRQAPGKERELVAAHTRRCGSTYYAVSVKGRFTISRDNGKNTFYLQMNSLKPEDTAVYYCAADDYTITIYYILDYWGQGTQVTVSS | low polyreactivity
QVQLVESGGRLVQGGGSLRLSCAASGITFKGYTMGWYRQAPGKERELVATISRGGRTYADSVKGRFTISRDNAKNTVYLQMNSLKPEDSAVYYCAADKYWAQNDYWGQGTQVTVSS | low polyreactivity
QVQLVESGGSLVQAGGSLRLSCAASGRIFYYNAMGWYRQAPGKERELVAAISWSGGSTYYADSVKGRFTISRDNAKNTVYLQMNSLKPEDTAVYYCAVDVYGYTPRPTREPLIYEYWGQGTQVTVSS | low polyreactivity

From the nanobody polyreactivity screen of Harvey et al. (2022)
